{
  "source": "paper PMC6251626",
  "about": "“Structural basis of tubulin recruitment and assembly by microtubule polymerases with tumor overexpressed gene (TOG) domain arrays” (eLife, 2018)",
  "key": {"[1]": {"biological_target": "T1, αβ-tubulin heterodimer purified from porcine brains (porcine, UniProt P02550 1-451; P02554 1-445)", "T1 construct": "α-tubulin of porcine brain; β-tubulin of porcine brain; Brain tubulin is a mixture of isotypes; Chains also in PDB 6MZF, 6MZE, 6MZG; also called soluble porcine αβ-tubulin; source: purified from porcine brains (two GTP-polymerization cycles at high ionic strength); copies: 1 + 1", "assay": "SEC; quantitative SEC (Superdex 200 10/300) with SDS-PAGE densitometry of fractions; 2 αβ-tubulin per Alp14 subunit, with or without DRP; 200 mM KCl, 50 mM HEPES pH 7.0, 1 mM MgCl2, 1 mM β-mercaptoethanol", "details": "both partners purified"}, "[2]": {"biological_target": "T1, αβ-tubulin heterodimer purified from …", "assay": "SEC; quantitative SEC (Superdex 200 10/300) with SDS-PAGE densitometry of fractions; 2 αβ-tubulin per Alp14 subunit, with or without DRP; 100 mM KCl, 50 mM HEPES pH 7.0, 1 mM MgCl2, 1 mM β-mercaptoethanol", "details": "both partners purified"}, "[3]": {"biological_target": "T1, αβ-tubulin heterodimer purified from …", "assay": "SEC-MALS; Alp14 constructs mixed with soluble αβ-tubulin (with or without DRP), Superdex 200 Increase 10/300, 80-100 mM KCl", "details": "both partners purified"}, "[4]": {"biological_target": "the molecule itself", "assay": "SEC-MALS; isolated proteins alone, 200 mM KCl"}},
  "data": [
    {"binder": "INT1+2 (Alp14-dimer with interfaces 1 and 2 inactivated) (domain or fragment) MSQDQEEDYSKLPLESRIVHKVWKVRLSAYEECSKSFSDAAAGSDNCFELWNNQSELWKSVLTDSNVAAQEAGTAAFVAYCRFSDPSHLLKAREISVLSISEKCLTSPRAGTRENALEALMLLVEADSAAPVIESIIPSLSARSPKVIASNVAAIASLVEQFGAKVIPSKMIIPHISNLFGHADKNVRKEASRLTVNIYRWTGDPAKDALFKDLRPVQTKELESLFAELPTEPPKQTRFLKSQQPTSEPNVETQVEEQPALENEESEPEPSDDQRAAAEEVDVLPNVDPNLETLMASSKWKDRKEALDKLLPVLSQPKILDNDFFNLVAILTKSVSKDANIMVVINAAHCIQAMAKGLASNFSKYASTSINALLERSKEKKANVIESLSSAMDAVLATSSLDDLAELIASFAGNKNPQIKSSCFSLFSRSFSNMTSDPAKFTVDTCAKACVPGVSDTFEPVRSAAAEALGVLMKLVGAAAINQYLSPLDDIRKSKIRSFYETATVKAKAPTKKSKVKPSKQEESKVVVPSNAKAVKKSVVPSSPVVPSPRKATNKSLSMDVSKGNAFENGPLLPRPTTRPVSRGLSRGTSSSLQQKVKASTPLNSGALNETVQNLKNMELDDPAPQPAKHSRVDRYEHPKVLEDNDSTISSLESLKRENEELREQLKVEHEENISMQKQLSELKGELNTL", "values": [
      {"measurement": "TOG1-TOG2:αβ-tubulin molar ratio", "setting": "[1]", "value": 1.46},
      {"measurement": "TOG1-TOG2:αβ-tubulin molar ratio", "setting": "[2]", "value": 1.86},
      {"measurement": "stoichiometry N", "setting": "[3]", "value": "~4"}
    ]},
    {"binder": "wt-Alp14-dimer (S. pombe Alp14 residues 1-690) (domain or fragment, UniProt O94534 1-690, looked up, Alp14 (Alp14p), S. pombe, residues 1-690 (TOG1-TOG2, SK-rich region, coiled coil); also called dimeric Alp14; source: E. coli BL21, purified (Ni-IDA and/or ion exchange, SEC)) MSQDQEEDYSKLPLESRIVHKVWKVRLSAYEECSKSFSLSADGSDNCFELWNNQSELWKSVLTDSNVAAQEAGTAAFVAYCRFSDPSHLLKAREISVLSISEKCLTSPRAGTRENALEALMLLVEADSAAPVIESIIPSLSARSPKVIASNVAAIASLVEQFGAKVIPSKMIIPHISNLFGHADKNVRKEASRLTVNIYRWTGDPLKDLLFKDLRPVQTKELESLFAELPTEPPKQTRFLKSQQPTSEPNVETQVEEQPALENEESEPEPSDDQFDLVEEVDVLPNVDPNLETLMASSKWKDRKEALDKLLPVLSQPKIKDNDFFNLVAILTKSVSKDANIMVVINAAHCIQAMAKGLRSNFSKYASTSINALLERSKEKKANVIESLSSAMDAVLATSSLDDLAELIASFAGNKNPQIKSSCFSLFSRSFSNMTSLPSKFTVDTCAKACVPGVSDTFEPVRSAAAEALGVLMKLVGERAINQYLSPLDDIRKSKIRSFYETATVKAKAPTKKSKVKPSKQEESKVVVPSNAKAVKKSVVPSSPVVPSPRKATNKSLSMDVSKGNAFENGPLLPRPTTRPVSRGLSRGTSSSLQQKVKASTPLNSGALNETVQNLKNMELDDPAPQPAKHSRVDRYEHPKVLEDNDSTISSLESLKRENEELREQLKVEHEENISMQKQLSELKGELNTL", "values": [
      {"measurement": "stoichiometry N", "setting": "[4]", "value": 2}
    ]}
  ]
}
